The test system of one data set is Botrytis cinerea. The data set can be described thus: Botrytis cinerea necrosis areas on treated eggplant leaves. Format: in vivo, Botrytis cinerea on Solanum melongena. The settings on record: day 8, control 11 mm^2 (FIG. 12C). The text has this: The present inventors also carried out tests aimed at determining the effects of exogenous application of the peptides of the invention, at picomolar and femtomolar concentrations, against the development of the necrotrophic fungus on Solanum melongena (eggplant) plants (FIG. 12C) and Vitis vinifera (vine) plants (FIG. 12D). […] The positive effect of the treatment was statistically significant from day 3 of inoculation of the pathogen to day 8 where values of 11 mm^2 were reached on the control leaves, unlike the treated leaves where values of 8.4 and 6.0 mm^2 were recorded on leaves treated with the peptides PS1-70 and PS1-120 at a concentration of 100 pM, and values of 6.2 and 4.10 mm^2 were recorded on leaves treated with said peptides at a concentration of 100 fM (FIG. 12C). Similar results were obtained on vine plants (FIG. 12D). The positive effect of the treatment was already statistically significant from day 1 of inoculation of the pathogen to day 8 where values of 43 mm^2 were reached on the control leaves, and values of 16.7 and 13.6 mm^2, respectively, were reached on leaves treated with the peptides PS1-70 and PS1-120 at a concentration of 100 pM, and values of 12 and 11.8 mm^2 were reached on leaves treated with said peptides at a concentration of 100 fM (FIG. 12D). Similar results were obtained on olive trees.

In data set [1] the test system is cat1, tft1, Sam, HSFA2, HSP70, HSP90, MPK1 and WRKY40 genes. The data set can be described thus: Salt stress gene expression in tomato plants irrigated with 100 pM peptide. Format: in vivo. The settings on record: 100 pM irrigation. As to the method: The analysis was carried out on the cat1, tft1, Sam, HSFA2, HSP70, HSP90, MPK1 and WRKY40 genes. The asterisks indicate the statistical significance of the data by Student's t-test (*p<0.05; **p<0.01; ***p<0.001).
An experiment was also set up to verify the efficiency of the peptides PS1-70, PS1-120 and SEQ ID NO.5, when administered at femtomolar concentrations, in promoting tolerance to a high salt stress condition.

The test system of another data set is S. littoralis larvae. Set-up: species or system Spodoptera littoralis. The settings on record: in vivo, po.
The subject of the next data set is Alternaria alternata. Kind of data set: Alternaria alternata necrosis areas on treated tomato leaves. Format: in vivo. The note with it: 100 fM. As for the experimental part:
For the performance of assays on the phytopathogenic Botrytis cinerea and Alternaria alternata fungi, the present inventors used spores of this microorganism obtained from cultures on solid PDA (Potato Dextrose Agar) sporulation substrate. The plates were inoculated with 20 μl of a conidial suspension at a concentration of 1×10^6 spores/ml and incubated for 15 days at 25° C. in the presence of diffused light, so as to obtain complete sporulation. The spores were then collected in 5 ml of sterile water and, in order to remove the mycelium, were filtered through glass wool, washed with sterile distilled water and collected by centrifugation at room temperature. The concentration of spores suitable for inoculation (10^5-10^7 spores/ml) was determined by the serial dilution method using a Burker cell counting chamber for spore counting.
The assay was carried out on a detached leaf by taking a compound leaf for each treated tomato plant and for each control plant. Each leaflet of the compound leaf was marked with 3 markers in order to guide the subsequent application of the spores and detection of the pathogen developing necrotic areas.
The present inventors also performed assays aimed at determining the effects of exogenous application of the peptides of the invention on tomato plants against the development of the necrotrophic Alternaria alternata fungus (FIG. 14).
The positive effect of the treatment was statistically significant from day 1 of inoculation of the pathogen to day 8 where values of 24 mm^2 were reached on the control leaves, unlike the treated leaves where values of 8.4 and 8.0 mm^2 were recorded on leaves treated with the peptides PS1-70 and PS1-120 at a concentration of 100 fM (FIG. 14A); and values of 17 mm^2 were recorded on the control leaves and values of 8.3 mm^2, 7.9 mm^2, 8.9 mm^2, and 7.8 mm^2 were recorded on leaves treated with the peptides PS1-70, SEQ ID NO.8, SEQ ID NO.3 and SEQ ID NO.5, respectively, at a concentration of 100 fM (FIG. 14B).

Data set [2] is described as follows: Biometric parameters of tomato plants irrigated with peptides. It counts as in vivo. The settings on record: 100 fM; for root surface (root area): 14 days of salt stress 150 mM, 15 days after irrigation (FIG. 20A); for growth (fresh weight) of the aerial part: absence of salt (FIG. 20B). As to the method:
FIG. 20 illustrates the effect of irrigation treatment with the peptides PS1-70, PS1-120 and SEQ ID NO.5 at a concentration of 100 fM on the biometric parameters of the tomato plant. […] The asterisks indicate the statistical significance of the data by Student's t-test (*p<0.05). A few biometric parameters are shown in FIG. 20, measured after 14 days of continuous salt stress (150 mM) and 15 days after irrigation with the peptides PS1-70, PS1-120 and SEQ ID NO.5 at 100 fM concentrations, and the respective controls.

The next data set relates to B. cinerea. The data set can be described thus: Seed treatment: B. cinerea necrosis areas on leaves of plants born from treated tomato seeds. The settings on record: leaves of 4-week-old plants born from seeds treated at 100 fM; day 8; control 11 mm^2 (FIG. 16). It counts as in vivo, Botrytis cinerea on tomato. As to the method:
The mean necrosis areas were measured 1, 3 and 5 days after inoculation of the pathogen. The letters a, b indicate the statistical significance of the data (ANOVA), each letter representing a statistical group. The present inventors also assessed the protective effect conferred by the treatment with the peptides object of the invention directly on the seed. Tomato seeds were treated with a composition comprising the peptides at a concentration of 100 fM or with 1×PBS for the controls, allowed to dry and germinated in the dark on sterile adsorbent paper at 24° C. 4-week-old plant leaves were detached from the plant and inoculated with 10 μl of spore solution in the internerve spaces and near the previously marked points.

The mark [3] stands for this setting: day 8, control 24 mm^2 (FIG. 14A).

B1: PS1-70: recombinant peptide contained in the amino-terminal region of the Prosystemin polypeptide, free of Systemin; expressed in E. coli (protein)
chain: MGTPSYDIKNKGDDMQEEPKVKLHHEKGGDEKEKIIEKETPSQDINNKDTISSYVLRDDTQEIPKMEHEE
modifications: Peptide PS1-70
notes: recombinant peptide contained in the amino-terminal region of the Prosystemin polypeptide, free of Systemin; expressed in E. coli
Consider B1, for which the necrosis areas was determined as 8.4 mm^2 in the data set on Botrytis cinerea (100 pM); 6.2 mm^2 in the data set with Botrytis cinerea (100 fM); 8.3 mm^2 in the data set with Alternaria alternata (day 8, control 17 mm^2 (FIG. 14B)); 8.4 mm^2 with Alternaria alternata (setting [3]); 7.1 mm^2 with B. cinerea. Also, in data set [1] (48 hours, 0 mM NaCl (FIG. 17A)), the “activation of salt stress-responsive genes and transcription factors” value was “able to activate a series of genes and transcription factors responsive to salt stress”. Besides, the “tolerance to salt / induction of responsive genes” value in data set [1] (moderate salt stress 80 mM NaCl (FIG. 17B)) is “more tolerant to salt than the untreated control plants”. The “direct toxic effect on survival and development of larvae” value in the data set on S. littoralis larvae was “no effect on their survival and development”. In addition, the “root surface (root area)” value in data set [2] is reported as “greater root surface”. Besides, the “growth (fresh weight) of the aerial part” value in data set [2] was “able to promote the growth of the aerial part of the plant”.

B2: PS1-120: recombinant peptide contained in the amino-terminal region of the Prosystemin polypeptide, free of Systemin; expressed in E. coli (protein)
chain: MGTPSYDIKNKGDDMQEEPKVKLHHEKGGDEKEKIIEKETPSQDINNKDTISSYVLRDDTQEIPKMEHEEGGYVKEKIVEKETISQYIIKIEGDDDAQEKLKVEYEEEEYEKEKIVEKET
modifications: Peptide PS1-120
notes: as for B1
For B2, the necrosis areas with Botrytis cinerea (100 pM) is on record as 6.0 mm^2; with Botrytis cinerea (100 fM), 4.10 mm^2; in the data set with Alternaria alternata (setting [3]), 8.0 mm^2; in the data set with B. cinerea it was 7.4 mm^2. Also, the “direct toxic effect on survival and development of larvae” value in the data set with S. littoralis larvae was “no effect on their survival and development”. Besides, the “root surface (root area)” value in data set [2] was “greater root surface”. In data set [2], the “growth (fresh weight) of the aerial part” value is “able to promote the growth of the aerial part of the plant”.

(Values after patent publication US20230270119A1, “BIOSTIMULANT AND BIOPROTECTIVE PEPTIDES AND THEIR USE IN AGRICULTURE” (priority 2020, published 2023).)
